B1: TPR t1 (parent)
chain: GACCAAUCUGCCCUCAGAGCUCGAGAACAUCUUCGGAUGCAGAGGAGGCAGGCUUCGGUGGCGCGAUAGCGCCAACGUCCUCAACCUCCAAUGCAUCCCACCACAUGAUGAUGCCUGAAGAGCCUUGGUUUUUUG

Variants of: B1
Test: polymerase ribozyme fitness, log enrichment relative to wild type (log ratio); higher = more active; in vitro selection for triplet polymerase activity
How it was run: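 Frozen incubation at −7 °C formed the core of a single, triplicate in vitro selection round applied to PCR-built, transcribed mutant libraries of each subunit of a heterodimeric triplet polymerase ribozyme. Extended constructs were gel-excised, captured with streptavidin beads and amplified by RT-PCR, and input and output libraries were Illumina-sequenced with a filter of ≥10 input reads and ≥1 read per output. Fitness is the logarithm of genotype enrichment relative to wild-type enrichment, with inverse-variance-weighted replicate averaging, and the logarithm is base 2.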

| Variant | polymerase ribozyme fitness (log ratio) |
| --- | --- |
| C11U U106A | -0.58 |
| C12A A91G U112A G127C | -1.8 |
| C11U C15A A29C C34A G71U C79U C104A G117U | -6.92 |
| C11U C85A | -2.42 |
| C12A C86U | -0.885 |
| C12A C79A | -1.35 |
| C12A C31U G35A C104G C115U | -6.08 |
| C11U G61C G120U G122U | -1.06 |
| C12A G42U G60A U87A G113A | -4.01 |
| C12A G23A G77U A119G | -5.67 |
| C11U G45C C88A | -0.484 |
| C12A C72U G113C | -4.5 |
| C12A A50U A74C A84G U112A | -4.85 |
| C11U C49G | -1.44 |
| C12A A27C C40G G63C G120A | -2.65 |
| C11U G69A A84C | -2.03 |
| C12A G45A C85A | -3.04 |
| C12A C80U A84U C89U A119G C123A | 0.231 |
| C12A G48C C72U G117U | -5.59 |
| C12A C49U G69C C80G C115G | -8.79 |
| C12A G36U G63A | -2.46 |
| C12A C72G U133C | -1.17 |
| C12A A41C U92G A111G | -2.42 |
| C12A A37C C40U G47A C73A | -4.88 |

| Variant | polymerase ribozyme fitness (log ratio) |
| --- | --- |
| C12A C15G C53U C88U U112A G113U C123A U129C | -3.91 |
| C11U U30A | -4.5 |
| C12A G42A C70U U96A G135C | -4.85 |
| C11U C49G G61U A90C | -2.04 |
| C11U G47C G71U U92G G113C | -5.32 |
| C12A C20U C114U | -0.454 |
| C11U U133G | -0.78 |
| C11U G39C U59C U81A A84G | -3.33 |
| C11U U78A U87A C99U C115A | -4.73 |
| C12A C13U G39U | -0.844 |
| C12A C13U U54A C72U C89A | -1.99 |
| C12A A91C U106A G117U | -5.61 |
| C12A C88U | -0.873 |
| C11U U33G A121C | -4.56 |
| C12A G45U G58C C98U C101A | -3.82 |
| C11U G35A A37U C124A U132A | -4.07 |
| C11U C53U C62U G110A U129A | -4.11 |
| C11U U125A | -0.822 |
| C11U U125G | -1.31 |
| C12A C102U | -2.56 |
| C12A A18G C20U A37U A50C C64U U92A | -4.28 |
| C12A C20A G63A | -3.86 |
| C12A C89G C114A | -4.11 |
| C11U U92C G127A | -3.76 |

| Variant | polymerase ribozyme fitness (log ratio) |
| --- | --- |
| C11U G117A | -2.36 |
| C11U G117U | -2.72 |
| C11U G117C | -2.78 |
| C11U C40G C53U C62U C73G C79A C86U | -4.3 |
| C12A C49G U109C A111U | -6.35 |
| C11U G19U C20A C104U G120U | -4.29 |
| C12A C73A G120C A121U | 2.42 |
| C11U G63U A84U C89U | -2.9 |
| C12A C22A A46U C79U | -6.1 |
| C12A C85A | -2.59 |
| C12A A75G C114A | -3.82 |
| C12A C56A C123U U131G | 0.231 |
| C12A C124G | 1.95 |
| C12A C124A | 1.83 |
| C12A C124U | 0.853 |
| C12A G17A G61U | -4.75 |
| C12A C49U U109A U116A C123G | -6.73 |
| C12A G45U | -1.63 |
| C11U G19A C49U C56U A66U C114U | -2.83 |
| C12A C101U | -0.736 |
| C12A G47A | -1.98 |
| C12A G47U | -2.48 |
| C12A C28A G39C A111C G122A | -5.3 |
| C11U G57A G58U G63U G77U C82G U106A | -3.25 |

| Variant | polymerase ribozyme fitness (log ratio) |
| --- | --- |
| C11U C40G C53U C73G C79A C86U | -4.32 |
| C12A C15U C73A C79U C86A C115U | -3.16 |
| C12A G45U C56U U78A | -1.36 |
| C12A C53G | -1.23 |
| C12A C15U G52U C62A C86U G117C | -5.92 |
| C11U C28G C85A C104U G113C | -6.42 |
| C12A G47C C70U G120C | -1.04 |
| C11U C13U A83C C97A | -4.34 |
| C12A C53G U92C | -1.45 |
| C12A A16U C56G C124A | -0.00308 |
| C11U G51A C56G C124A | -0.733 |
| C11U C79U U81C C94A G120U | -4.75 |
| C11U G52A C56U C72G U109G | -5.83 |
| C12A A16G G36U | -4.37 |
| C12A A121G | 1.96 |
| C11U U87G C102U | -1.67 |
| C11U G65U C82U C104A U112A | -6.27 |
| C12A A43U C56A | -2.54 |
| C11U G23A G61A G113U | -6.08 |
| C12A A46C U59A | -0.649 |
| C12A G36C G60A | -1.66 |
| C11U C53G C56U U87C G117U G120A G122A | -3.01 |
| C11U C22U C40G | -4.75 |
| C11U C82G C102A U112A G120C U125G | -5 |

| Variant | polymerase ribozyme fitness (log ratio) |
| --- | --- |
| C11U G60A U78C A95U U112A U116G | -3.18 |
| C12A A18U C56U A68C C79U C115U A118C U131C | -6.43 |
| C12A C34U | -4.77 |
| C12A A111C | -0.641 |
| C12A A111U | -2.77 |
| C11U C34A G48U U87A | -5.34 |
| C12A C89A | -1.87 |
| C12A A29C A84C | -3.21 |
| C12A G36A U54A G57C C97A | -4.92 |
| C12A A43U | -2.89 |
| C11U U54G G61U U106A G113C C114A | -6.66 |
| C12A C62G | -0.737 |
| C12A G42C G69U C80U | -1.06 |
| C11U C101U | -0.727 |
| C11U C114A C123U | -2.21 |
| C11U C79G G93U | -3.61 |
| C12A C72A G120C | 1.29 |
| C12A C123U G128C | 0.474 |
| C12A G17A | -4.31 |
| C12A G17U | -3.81 |
| C11U G45C G57A G61U U132C | -3.81 |
| C11U G61A A105G U106A | -0.0724 |
| C12A C22G G36U U116C G120U | -3.27 |
| C11U G42U C101A | -3.62 |

| Variant | polymerase ribozyme fitness (log ratio) |
| --- | --- |
| C12A C124G G127U | 1.3 |
| C12A A43C G61U | -0.92 |
| C12A C88G G128U U129A | -4.77 |
| C11U U96A G110U | -2.95 |
| C12A C53U U106G G113C G127C | -5.83 |
| C12A A41G | -0.758 |
| C11U C34U C86G C102U A121U | -1.28 |
| C11U C73G | 0.0999 |
| C11U C73U | -0.94 |
| C11U G69A A84C C123U | -0.562 |
| C11U U132A | -0.17 |
| C11U C15G U59C U112A | -4.15 |
| C11U G48C | -1.61 |
| C11U G61C | -1.64 |
| C11U G61U | -0.841 |
| C12A A37G | -0.967 |
| C12A A37U | -1.73 |
| C11U G25U | -5.82 |
| C12A G45U A100U | -3.05 |
| C12A A16U A50U A74U | -5.14 |
| C11U G51C C85U | -4.53 |
| C12A G48A | -0.767 |
| C11U C22G A83C | -4.06 |
| C11U G60A U106C G128C | -3.82 |

| Variant | polymerase ribozyme fitness (log ratio) |
| --- | --- |
| C12A C123U | 0.76 |
| C12A C82G | -1.17 |
| C12A C114U | -1.85 |
| C12A C114A | -1.3 |
| C12A C70A | -2.05 |
| C11U C15A A26G C53G G61U G120C | -4.04 |
| C12A A18G C82A C101A U130G | -7.19 |
| C12A A43C G61U C123G | -0.577 |
| C12A G19U G23U G47A G52C G69U G110C | -7.34 |
| C12A C13A C62U U78G C115G C124G G127U | -6.43 |
| C11U G42C C64U C94U | -1.83 |
| C12A C49U G113C U133C | -3.24 |
| C12A C56G A84U | -1.85 |
| C12A C70U U78G | -1.07 |
| C12A C13G G45C A119U C124A U132A | 0.6 |
| C12A A27G G71U G93A | -6.11 |
| C11U C64A | -4.93 |
| C12A C56A | -1.02 |
| C12A C56U | 0.0114 |
| C11U C40U C101A | -2.4 |
| C12A A75G | -0.0398 |
| C11U C22G C40U U106G | -4.43 |
| C11U C49G A74U C123G | 0.499 |

Source: the RNAGym collection of RNA variant scans (doi:10.1073/pnas.2313332121)
